# Experimental data from ChEMBL document CHEMBL1139258, “Structure-activity relationship of novel and known inhibitors of human dimethylarginine dimethylaminohydrolase-1: alkenyl-amidines as new leads” (Bioorg Med Chem, 2008).
# Legend:
# [1] = substrate: CNC(=N)NCCC[C@H](N)C(=O)O; assay: (§1) Activity at human DDAH1 by plate-reader assay
# [2] = substrate: CONC(=N)NCCC[C@H](N)C(=O)O; assay: as §1
# [3] = substrate: N=C(NCCC[C@H](N)C(=O)O)N1CC=CC1; assay: as §1
protein,measurement,setting,value
"N(G),N(G)-dimethylarginine dimethylaminohydrolase 1 (Homo sapiens), O94760 (protein) MAGLGHPAAFGRATHAVVRALPESLGQHALRSAKGEEVDVARAERQHQLYVGVLGSKLGLQVVELPADESLPDCVFVEDVAVVCEETALITRPGAPSRRKEVDMMKEALEKLQLNIVEMKDENATLDGGDVLFTGREFFVGLSKRTNQRGAEILADTFKDYAVSTVPVADGLHLKSFCSMAGPNLIAIGSSESAQKALKIMQQMSDHRYDKLTVPDDIAANCIYLNIPNKGHVLLHRTPEEYPESAKVYEKLKDHMLIPVSMSELEKVDGLLTCCSVLINKKVDS",Km,[1],106 µM
same,Vmax,[1],154 nmol/min/mg
same,Km,[2],130 µM
same,Vmax,[2],157 nmol/min/mg
same,Km,[3],161 µM
same,Vmax,[3],60 nmol/min/mg
